± gives the uncertainty stated by the source.
B1: Serine/threonine-protein kinase LATS1, residues 98 to 141; numbered along this chain, O95835 (parent)
chain: TSEVNPQMLQDLQAAGFDEDMVIQALQKTNNRSIEAAIEFISKM

Variants of: B1
Test: abundance fitness (aPCA) (normalised: wild type 0, dead -1); higher = more abundant; growth selection in yeast, the domain comes from the species named
Conditions: Homo sapiens

| Variant | abundance fitness |
| --- | --- |
| TSEVNPSMLQDLQAAGFDEDMVIQALQKTNNRSIEAAIEFISKM [Q7S] | -0.149 ± 0.042 |
| TSEVNPTMLQDLQAAGFDEDMVIQALQKTNNRSIEAAIEFISKM [Q7T] | -0.079 ± 0.053 |
| TSEVNPVMLQDLQAAGFDEDMVIQALQKTNNRSIEAAIEFISKM [Q7V] | -0.147 ± 0.034 |
| TSEVNPYMLQDLQAAGFDEDMVIQALQKTNNRSIEAAIEFISKM [Q7Y] | -0.345 ± 0.073 |
| TSEVNPQALQDLQAAGFDEDMVIQALQKTNNRSIEAAIEFISKM [M8A] | -0.525 ± 0.051 |
| TSEVNPQCLQDLQAAGFDEDMVIQALQKTNNRSIEAAIEFISKM [M8C] | -0.778 ± 0.37 |
| TSEVNPQDLQDLQAAGFDEDMVIQALQKTNNRSIEAAIEFISKM [M8D] | -0.419 ± 0.074 |
| TSEVNPQFLQDLQAAGFDEDMVIQALQKTNNRSIEAAIEFISKM [M8F] | -0.162 ± 0.057 |
| TSEVNPQGLQDLQAAGFDEDMVIQALQKTNNRSIEAAIEFISKM [M8G] | -0.583 ± 0.038 |
| TSEVNPQHLQDLQAAGFDEDMVIQALQKTNNRSIEAAIEFISKM [M8H] | -0.244 ± 0.084 |
| TSEVNPQILQDLQAAGFDEDMVIQALQKTNNRSIEAAIEFISKM [M8I] | -0.431 ± 0.062 |
| TSEVNPQKLQDLQAAGFDEDMVIQALQKTNNRSIEAAIEFISKM [M8K] | -0.485 ± 0.056 |
| TSEVNPQLLQDLQAAGFDEDMVIQALQKTNNRSIEAAIEFISKM [M8L] | -0.203 ± 0.035 |
| TSEVNPQPLQDLQAAGFDEDMVIQALQKTNNRSIEAAIEFISKM [M8P] | -0.717 ± 0.067 |
| TSEVNPQQLQDLQAAGFDEDMVIQALQKTNNRSIEAAIEFISKM [M8Q] | -0.541 ± 0.066 |
| TSEVNPQRLQDLQAAGFDEDMVIQALQKTNNRSIEAAIEFISKM [M8R] | -0.597 ± 0.043 |
| TSEVNPQSLQDLQAAGFDEDMVIQALQKTNNRSIEAAIEFISKM [M8S] | -0.543 ± 0.04 |
| TSEVNPQTLQDLQAAGFDEDMVIQALQKTNNRSIEAAIEFISKM [M8T] | -0.447 ± 0.067 |
| TSEVNPQVLQDLQAAGFDEDMVIQALQKTNNRSIEAAIEFISKM [M8V] | -0.508 ± 0.036 |
| TSEVNPQWLQDLQAAGFDEDMVIQALQKTNNRSIEAAIEFISKM [M8W] | -0.208 ± 0.056 |

| Variant | abundance fitness |
| --- | --- |
| TSEVNPQYLQDLQAAGFDEDMVIQALQKTNNRSIEAAIEFISKM [M8Y] | -0.151 ± 0.044 |
| TSEVNPQMAQDLQAAGFDEDMVIQALQKTNNRSIEAAIEFISKM [L9A] | 0.004 ± 0.049 |
| TSEVNPQMEQDLQAAGFDEDMVIQALQKTNNRSIEAAIEFISKM [L9E] | -0.273 ± 0.049 |
| TSEVNPQMFQDLQAAGFDEDMVIQALQKTNNRSIEAAIEFISKM [L9F] | -0.082 ± 0.051 |
| TSEVNPQMGQDLQAAGFDEDMVIQALQKTNNRSIEAAIEFISKM [L9G] | -0.481 ± 0.082 |
| TSEVNPQMHQDLQAAGFDEDMVIQALQKTNNRSIEAAIEFISKM [L9H] | -0.35 ± 0.17 |
| TSEVNPQMKQDLQAAGFDEDMVIQALQKTNNRSIEAAIEFISKM [L9K] | 0.136 ± 0.05 |
| TSEVNPQMNQDLQAAGFDEDMVIQALQKTNNRSIEAAIEFISKM [L9N] | -0.445 ± 0.12 |
| TSEVNPQMPQDLQAAGFDEDMVIQALQKTNNRSIEAAIEFISKM [L9P] | -0.53 ± 0.1 |
| TSEVNPQMQQDLQAAGFDEDMVIQALQKTNNRSIEAAIEFISKM [L9Q] | -0.124 ± 0.08 |
| TSEVNPQMRQDLQAAGFDEDMVIQALQKTNNRSIEAAIEFISKM [L9R] | -0.104 ± 0.062 |
| TSEVNPQMSQDLQAAGFDEDMVIQALQKTNNRSIEAAIEFISKM [L9S] | -0.125 ± 0.056 |
| TSEVNPQMTQDLQAAGFDEDMVIQALQKTNNRSIEAAIEFISKM [L9T] | -0.166 ± 0.15 |
| TSEVNPQMVQDLQAAGFDEDMVIQALQKTNNRSIEAAIEFISKM [L9V] | -0.045 ± 0.039 |
| TSEVNPQMWQDLQAAGFDEDMVIQALQKTNNRSIEAAIEFISKM [L9W] | -0.649 ± 0.066 |
| TSEVNPQMYQDLQAAGFDEDMVIQALQKTNNRSIEAAIEFISKM [L9Y] | -0.421 ± 0.38 |
| TSEVNPQMLADLQAAGFDEDMVIQALQKTNNRSIEAAIEFISKM [Q10A] | 0.015 ± 0.037 |
| TSEVNPQMLCDLQAAGFDEDMVIQALQKTNNRSIEAAIEFISKM [Q10C] | -0.225 ± 0.053 |
| TSEVNPQMLDDLQAAGFDEDMVIQALQKTNNRSIEAAIEFISKM [Q10D] | -0.12 ± 0.054 |
| TSEVNPQMLEDLQAAGFDEDMVIQALQKTNNRSIEAAIEFISKM [Q10E] | -0.077 ± 0.039 |

| Variant | abundance fitness |
| --- | --- |
| TSEVNPQMLFDLQAAGFDEDMVIQALQKTNNRSIEAAIEFISKM [Q10F] | -0.247 ± 0.059 |
| TSEVNPQMLGDLQAAGFDEDMVIQALQKTNNRSIEAAIEFISKM [Q10G] | -0.231 ± 0.033 |
| TSEVNPQMLHDLQAAGFDEDMVIQALQKTNNRSIEAAIEFISKM [Q10H] | 0.019 ± 0.14 |
| TSEVNPQMLIDLQAAGFDEDMVIQALQKTNNRSIEAAIEFISKM [Q10I] | -0.267 ± 0.044 |
| TSEVNPQMLKDLQAAGFDEDMVIQALQKTNNRSIEAAIEFISKM [Q10K] | 0.013 ± 0.046 |
| TSEVNPQMLLDLQAAGFDEDMVIQALQKTNNRSIEAAIEFISKM [Q10L] | -0.173 ± 0.034 |
| TSEVNPQMLMDLQAAGFDEDMVIQALQKTNNRSIEAAIEFISKM [Q10M] | -0.128 ± 0.043 |
| TSEVNPQMLNDLQAAGFDEDMVIQALQKTNNRSIEAAIEFISKM [Q10N] | -0.105 ± 0.24 |
| TSEVNPQMLPDLQAAGFDEDMVIQALQKTNNRSIEAAIEFISKM [Q10P] | -1 ± 0.11 |
| TSEVNPQMLRDLQAAGFDEDMVIQALQKTNNRSIEAAIEFISKM [Q10R] | 0.012 ± 0.037 |
| TSEVNPQMLSDLQAAGFDEDMVIQALQKTNNRSIEAAIEFISKM [Q10S] | -0.07 ± 0.034 |
| TSEVNPQMLTDLQAAGFDEDMVIQALQKTNNRSIEAAIEFISKM [Q10T] | -0.195 ± 0.04 |
| TSEVNPQMLVDLQAAGFDEDMVIQALQKTNNRSIEAAIEFISKM [Q10V] | -0.253 ± 0.038 |
| TSEVNPQMLWDLQAAGFDEDMVIQALQKTNNRSIEAAIEFISKM [Q10W] | -0.295 ± 0.042 |
| TSEVNPQMLQALQAAGFDEDMVIQALQKTNNRSIEAAIEFISKM [D11A] | -0.017 ± 0.033 |
| TSEVNPQMLQELQAAGFDEDMVIQALQKTNNRSIEAAIEFISKM [D11E] | 0.091 ± 0.043 |
| TSEVNPQMLQFLQAAGFDEDMVIQALQKTNNRSIEAAIEFISKM [D11F] | -0.045 ± 0.051 |
| TSEVNPQMLQGLQAAGFDEDMVIQALQKTNNRSIEAAIEFISKM [D11G] | -0.479 ± 0.04 |
